Source: US8735553 (BEIGENE SWITZERLAND, dated 2014)
Residue numbers refer to the chain shown, from its start. Read-outs that look alike come from different tables or passages of the source.

How the values were obtained:
[1] = target: T1, human PD-1 expressed on cells (human, UniProt Q15116 25-288); test: cell-based or functional assay
[2] = target: P3Z chimeric PD-1 receptor (human); test: cell-based or functional assay
[3] = target: T1, human PD-1 expressed on cells; test: FACS on PD-1-expressing cells
[4] = target: T1, human PD-1 expressed on cells; test: FACS on PD-1-expressing cells; remark: listed apart in the source
[5] = target: T1, human PD-1 expressed on cells; test: cell-based or functional assay; remark: listed apart in the source
[6] = target: P3Z chimeric PD-1 receptor (human); test: cell-based or functional assay; remark: listed apart in the source
[7] = target: T1, human PD-1 expressed on cells; test: cell-based or functional assay; remark: listed apart in the source
[8] = target: P3Z chimeric PD-1 receptor (human); test: cell-based or functional assay; remark: listed apart in the source
[9] = target: T1, human PD-1 expressed on cells; test: FACS on PD-1-expressing cells, goat anti-human IgG detection
[10] = target: T2, wild-type human PD-1 recombinant protein (PD-1/His or PD-1/Fc, not said which) (human, UniProt Q15116 21-168); test: ELISA on coated recombinant PD-1
T2 construct: also called WT PD-1
T2 sequence (Q15116 21-168 limits assumed): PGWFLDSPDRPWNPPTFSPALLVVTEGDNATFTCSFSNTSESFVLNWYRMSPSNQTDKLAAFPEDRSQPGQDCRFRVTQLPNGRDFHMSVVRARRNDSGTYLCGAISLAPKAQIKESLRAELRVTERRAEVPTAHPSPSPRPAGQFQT

human FcγRI = target: T3, human FcγRI (human, UniProt P12314 16-374); test: flow cytometry, FcγR+ HEK293 cells
T3 construct: whole, on cells; also called FcγR1
T3 sequence (P12314 16-374): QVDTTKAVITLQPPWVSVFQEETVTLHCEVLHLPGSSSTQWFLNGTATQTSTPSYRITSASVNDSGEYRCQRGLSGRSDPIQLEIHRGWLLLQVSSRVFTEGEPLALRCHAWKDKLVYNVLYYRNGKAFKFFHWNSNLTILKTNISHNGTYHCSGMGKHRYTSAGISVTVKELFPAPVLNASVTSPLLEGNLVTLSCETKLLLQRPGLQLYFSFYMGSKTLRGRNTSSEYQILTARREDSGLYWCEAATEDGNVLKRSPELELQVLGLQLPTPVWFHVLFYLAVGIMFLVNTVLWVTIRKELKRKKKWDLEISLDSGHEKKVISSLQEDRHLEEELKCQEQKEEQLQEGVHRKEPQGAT
Experimental: (§1) Binding of various IgG4 mutants to FcγRs was determined by flow cytometry. In brief, a series of HEK293 transfectants expressing human FcγRs were established. These transfectants expressed FcγRI, FcγRIIA, FcγRIIB or FcγRIIIA Multi-subunit FcγRs (i.e., FcγR1 and FcγRIIIA) were co-expressed with FcRγ. Polymorphic variants (i.e., FcγRIIA H131 and R131, FcγRIIIA F158 and V158) were also included.

human FcγRIIIA (F158) = target: T4, human FcγRIIIA (F158) (human, UniProt P08637 17-254); test: flow cytometry, FcγR+ HEK293 cells
T4 construct: whole, on cells
T4 sequence (P08637 17-254): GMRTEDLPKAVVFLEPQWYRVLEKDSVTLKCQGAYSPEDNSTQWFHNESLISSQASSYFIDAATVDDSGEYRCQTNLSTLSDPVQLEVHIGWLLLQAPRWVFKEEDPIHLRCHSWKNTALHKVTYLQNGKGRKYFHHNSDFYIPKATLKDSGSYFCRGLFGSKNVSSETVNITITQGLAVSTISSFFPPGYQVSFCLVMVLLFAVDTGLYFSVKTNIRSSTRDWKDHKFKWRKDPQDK
Experimental: as §1

human FcγRIIIA (V158) = target: T5, human FcγRIIIA (V158) (human, UniProt P08637 17-254); test: flow cytometry, FcγR+ HEK293 cells
T5 construct: whole, on cells; also called CD16 (V158 allele)
T5 sequence (P08637 17-254 F176V limits assumed): as the sequence (P08637 17-254) above, with F160V counted along it
Experimental: as §1

[11] = target: T1, human PD-1 expressed on cells; test: cell-based or functional assay; remark: listed apart in the source
[12] = target: T1, human PD-1 expressed on cells; test: FACS on HuT78/PD-1 cells, MFI against Ab concentration (unit taken from the x axis, µg/ml)
Experimental: To block human Fc receptors, cells were pre-incubated with human IgG (20 μg/ml) (Cat. No. H11296, LifeHolder, USA and Shanghai, China).
Dose-dependent reaction curve of murine mAbs binding to human PD-1 expressed on live cells by FACS analyses. […] MFI stands for mean fluorescence intensity. HuT78/PD-1 cells were suspended in 96-well plate at 5 ×10^4 cells per well for FACS.

[13] = target: T1, human PD-1 expressed on cells; test: cell-based or functional assay; remark: listed apart in the source
[14] = target: P3Z chimeric PD-1 receptor (human); test: cell-based or functional assay; remark: listed apart in the source
[15] = target: T1, human PD-1 expressed on cells; test: cell-based or functional assay; remark: listed apart in the source
[16] = target: P3Z chimeric PD-1 receptor (human); test: cell-based or functional assay; remark: listed apart in the source
PD-1-EC/Fc = target: T6, PD-1-EC/Fc (human, UniProt Q15116 21-168); test: SPR (BIAcore T-200), mAb captured on anti-mouse Fc chip, PD-1/Fc injected
T6 construct: AA 1-168 includes the signal peptide; Made in 293-F cells; also called PD-1/Fc
T6 sequence (Q15116 21-168 limits assumed): as the sequence (Q15116 21-168 limits assumed) above
Experimental: Anti-mouse Fc CM5 biosensor chip (GE Healthcare) was generated using a standard primary amine coupling protocol. […] Association rates (K_a or $kon$) and dissociation rates (K_d or $koff$) were calculated using the one-to-one Langmuir binding model (BIA Evaluation Software, GE Life Sciences). The equilibrium dissociation constant (K_D) was calculated as the ratio $koff/kon$.

[17] = target: T1, human PD-1 expressed on cells; test: cell-based or functional assay; remark: listed apart in the source

T1 sequence (Q15116 25-288): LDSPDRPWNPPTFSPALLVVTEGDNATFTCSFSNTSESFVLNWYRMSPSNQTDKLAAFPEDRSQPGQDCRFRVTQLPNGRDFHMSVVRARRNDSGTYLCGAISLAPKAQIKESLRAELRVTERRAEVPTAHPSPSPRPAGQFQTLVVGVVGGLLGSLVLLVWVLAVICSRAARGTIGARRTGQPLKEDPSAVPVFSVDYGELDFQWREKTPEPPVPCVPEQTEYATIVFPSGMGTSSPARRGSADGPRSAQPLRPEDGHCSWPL
P3Z chimeric PD-1 receptor (human), sequence (chain, as listed by the source mutant limits assumed): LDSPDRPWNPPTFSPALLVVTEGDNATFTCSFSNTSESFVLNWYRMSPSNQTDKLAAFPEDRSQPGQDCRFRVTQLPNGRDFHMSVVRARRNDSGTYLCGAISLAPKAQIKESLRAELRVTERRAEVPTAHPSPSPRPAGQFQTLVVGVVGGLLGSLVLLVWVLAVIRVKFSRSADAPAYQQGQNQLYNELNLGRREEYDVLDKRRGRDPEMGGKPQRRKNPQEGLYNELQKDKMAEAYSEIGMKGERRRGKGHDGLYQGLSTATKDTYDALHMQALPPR

B1: ch326 (antibody, human IgG2, V domains shown, not shown: a dimerising Fc or GST)
VH: QIQLVQSGPELKKPGETVKISCKASGYTFTNYGMNWVKQAPGKGLKWMGWINNNNGEPTYAEEFKGRFAFSLETSASTAYLQINNLKNEDTATYFCARDVMDYWGQGTSVTVSS
VL: DIVLTQSPASLAVSLGQRATISCRASESVDNYGYSFMHWYQQKPGQPPQLLIYRASNLESGIPARFSGSGSRTGFTLTINPVEADDVATYYCQQSKEYPTFGGGTKLEVKR
notes: domain: Ig kappa C-region; Murine VH and Vκ of mu326 on human IgG2 / kappa
IL-2 release in HuT78/PD-1, EC50 [1]: 0.135 mg/L
IL-2 release in HuT78/PD-1, Top line [1]: 993 pg/mL
IL-2 release in HuT78/P3Z, IC50 [2]: 0.074 mg/L
IL-2 release in HuT78/P3Z, Max inhibition [2]: 93%
EC50 [3]: 0.072 mg/L
Top MFI [3]: 163 MFI
EC50 [4]: 0.118 mg/L
Assay-1 IL-2 release, EC50 (HuT78/PD-1 + HEK293/OS8/PD-L1) [5]: 0.074 mg/L
Assay-1 IL-2 release, Top line (HuT78/PD-1 + HEK293/OS8/PD-L1) [5]: 1060 pg/mL
Assay-2 IL-2 release, IC50 (HuT78/P3Z + HEK293/PD-L1) [6]: 0.12 mg/L
Assay-2 IL-2 release, Max inhibition (HuT78/P3Z + HEK293/PD-L1) [6]: 81%

B2: hu317-1 (antibody, IgG2, V domains shown, not shown: a dimerising Fc or GST)
VH: QVQLQESGPGLVKPSETLSLTCTVSGFSLTSYGVHWIRQPPGKGLEWLGVIWAGGSTNYNPSLKSRLTISKDNSKSQVSLKMSSVTAADTAVYYCARAYGNYWYIDVWGQGTTVTVSS
VL: DIVMTQSPDSLAVSLGERATINCKASQSVSNDVAWYQQKPGQPPKLLINYAFHRFTGVPDRFSGSGYGTDFTLTISSLQAEDVAVYYCHQAYSSPYTFGGGTKLEIKR
notes: domain: Ig kappa C-region; Initial humanized version, IgG2 / kappa
Assay-1 IL-2 release, EC50 (HuT78/PD-1 + HEK293/OS8/PD-L1) [7]: 0.09 mg/L
Assay-1 IL-2 release, Top line (HuT78/PD-1 + HEK293/OS8/PD-L1) [7]: 386 pg/mL
Assay-2 IL-2 release, IC50 (HuT78/P3Z + HEK293/PD-L1) [8]: 0.11 mg/L
Assay-2 IL-2 release, Max inhibition (HuT78/P3Z + HEK293/PD-L1) [8]: 99.8%
EC50 [9]: 0.46 mg/L

B3: hu317-4B5 (antibody, V domains shown)
VH: B2 VH with L48I, W52Y, L67V, N73T, S76N, M82L
VL: DIVMTQSPDSLAVSLGERATINCKSSESVSNDVAWYQQKPGQPPKLLINYAFHRFTGVPDRFSGSGYGTDFTLTISSLQAEDVAVYYCHQAYSSPYTFGQGTKLEIK
notes: Humanized mAb
EC50 [10]: 0.057 mg/L

B4: hu317-4B2 (antibody, V domains shown)
VH: B2 VH with L48I, W52Y, L67V, N73T, S76N, V78F, M82L
VL: B3 VL
notes: Humanized mAb
EC50 [10]: 0.066 mg/L

B5: hu317-4B6/IgG4mt10 (antibody)
heavy: QVQLQESGPGLVKPSETLSLTCTVSGFSLTSYGVHWIRQPPGKGLEWIGVIYADGSTNYNPSLKSRVTISKDTSKNQVSLKLSSVTAADTAVYYCARAYGNYWYIDVWGQGTTVTVSSASTKGPSVFPLAPCSRSTSESTAALGCLVKDYFPEPVTVSWNSGALTSGVHTFPAVLQSSGLYSLSSVVTVPSSSLGTKTYTCNVDHKPSNTKVDKRVESKYGPPCPPCPAPPVAGGPSVFLFPPKPKDTLMISRTPEVTCVVVAVSQEDPEVQFNWYVDGVEVHNAKTKPREEQFNSTYRVVSVLTVVHQDWLNGKEYKCKVSNKGLPSSIEKTISKAKGQPREPQVYTLPPSQEEMTKNQVSLTCLVKGFYPSDIAVEWESNGQPENNYKTTPPVLDSDGSFFLYSKLTVDKSRWQEGNVFSCSVMHEALHNHYTQKSLSLSLGK
VL: B3 VL
notes: Light chain constant region not restated for this format; copies: 2 + 2
binding result (human FcγRI): no binding
binding result (human FcγRIIIA (F158)): no binding
binding result (human FcγRIIIA (V158)): no binding

B6: ch317 (antibody, human IgG2, V domains shown, not shown: a dimerising Fc or GST)
VH: QVQLKESGPGLVAPSKNLSITCTVSGFSLTSYGVHWIRQPPGKGLEWLGVIWAGGSTNYNSALMSRLSISKDNSRSQVFLRMNSLQTDDTAMYYCARAYGNYWYIDVWGAGTTVTVSS
VL: DIVMTQTPKFLLVSAGDRVTITCKASQSVSNDVAWYQQKPGQSPKLLINYAFHRFTGVPDRFTGSGYGTDFIFTISTVQAEDLAVYFCHQAYSSPYTFGGGTKLEMKR
notes: domain: Ig kappa C-region; Murine VH and Vκ of mu317 on human IgG2 / kappa
Assay-1 IL-2 release, EC50 (HuT78/PD-1 + HEK293/OS8/PD-L1) [7]: 0.08 mg/L
Assay-1 IL-2 release, Top line (HuT78/PD-1 + HEK293/OS8/PD-L1) [7]: 294 pg/mL
Assay-2 IL-2 release, IC50 (HuT78/P3Z + HEK293/PD-L1) [8]: 0.1 mg/L
Assay-2 IL-2 release, Max inhibition (HuT78/P3Z + HEK293/PD-L1) [8]: 99%
EC50 [9]: 0.36 mg/L

B7: hu326-2 S85N (antibody, V domains shown)
VH: QVQLVQSGSELKKPGASVKVSCKASGYTFTNYGMNWVRQAPGQGLEWMGWINNNNGEPTYAQGFRGRFVFSLDTSASTAYLQISNLKTEDTAVYFCARDVMDYWGQGTTVTVSS
VL: DIVLTQSPASLAVSPGQRATITCRASESVDNYGYSFMHWYQQKPGQPPKLLIYRASNLESGVPARFSGSGSRTDFTLTINPVEANDTANYYCQQSKEYPTFGGGTKVEIK
notes: mAb; constant regions not restated (hu326-1 is IgG2 / kappa); Back mutation to murine
IL-2 release in HuT78/PD-1, EC50 [1]: 0.104 mg/L
IL-2 release in HuT78/PD-1, Top line [1]: 932 pg/mL
IL-2 release in HuT78/P3Z, IC50 [2]: 0.093 mg/L
IL-2 release in HuT78/P3Z, Max inhibition [2]: 95.6%
EC50 [4]: 0.11 mg/L

B8: murine mAb 326 (antibody, V domains shown)
VH: B1 VH
VL: B7 VL with P15L, T22S, K49Q, V62I, D74G, N85D, T87V, N89T, V107L, I109V
notes: Murine hybridoma antibody; also called mu326
EC50 [3]: 0.126 mg/L
Top MFI [3]: 195 MFI
Cytotoxicity of NK92MI/PD-1 cells against SK-MES-1/PD-L1, EC50 [11]: 0.37 mg/L
EC50 [12]: 0.126 mg/L
IL-2 release, EC50 (HuT78/PD-1 + HEK293/OS8/PD-L2) [13]: 0.038 mg/L
Inhibition of IL-2 secretion, IC50 (HuT78/P3Z + HEK293/PD-L1) [14]: 0.039 µ/ml
IL-2 release, EC50 (HuT78/PD-1 + HEK293/OS8/PD-L1) [15]: 0.053 mg/L
Assay-1 IL-2 release, EC50 (HuT78/PD-1 + HEK293/OS8/PD-L1) [5]: 0.038 mg/L
Assay-1 IL-2 release, Top line (HuT78/PD-1 + HEK293/OS8/PD-L1) [5]: 1150 pg/mL
Assay-2 IL-2 release, IC50 (HuT78/P3Z + HEK293/PD-L1) [6]: 0.14 mg/L
Assay-2 IL-2 release, Max inhibition (HuT78/P3Z + HEK293/PD-L1) [6]: 96.9%
Inhibition of IL-2 secretion, IC50 (HuT78/P3Z + HEK293/PD-L2) [16]: 0.018 mg/L
Kd (PD-1-EC/Fc): 0.324 nM
koff (PD-1-EC/Fc): 7.79e-05 s⁻¹
kon (PD-1-EC/Fc): 240000 M⁻¹ s⁻¹
IFN-γ secreted, EC50 (NK92MI/PD-1 + SK-MES-1/PD-L1) [17]: 0.2 mg/L

B9: hu326-4A3/IgG4mt10 (antibody)
heavy: QVQLVQSGSELKKPGASVKVSCKASGYTFTNYGMNWVRQAPGQGLKWMGWINNNNAEPTYAQDFRGRFVFSLDTSASTAYLQISSLKTEDTAVYYCARDVMDYWGQGTLVTVSSASTKGPSVFPLAPCSRSTSESTAALGCLVKDYFPEPVTVSWNSGALTSGVHTFPAVLQSSGLYSLSSVVTVPSSSLGTKTYTCNVDHKPSNTKVDKRVESKYGPPCPPCPAPPVAGGPSVFLFPPKPKDTLMISRTPEVTCVVVAVSQEDPEVQFNWYVDGVEVHNAKTKPREEQFNSTYRVVSVLTVVHQDWLNGKEYKCKVSNKGLPSSIEKTISKAKGQPREPQVYTLPPSQEEMTKNQVSLTCLVKGFYPSDIAVEWESNGQPENNYKTTPPVLDSDGSFFLYSKLTVDKSRWQEGNVFSCSVMHEALHNHYTQKSLSLSLGK
VL: B7 VL with R72G, N85E
notes: as for B5
binding result (human FcγRI): no binding
binding result (human FcγRIIIA (F158)): no binding
binding result (human FcγRIIIA (V158)): no binding

B10: hu326-1 (antibody, IgG2, V domains shown, not shown: a dimerising Fc or GST)
VH: B7 VH with N85S
VL: B1 VL with L15P, S22T, Q49K, I62V, G74D, D85N, V87T, T89N, L107V, V109I
notes: as for B2
IL-2 release in HuT78/PD-1, EC50 [1]: 0.213 mg/L
IL-2 release in HuT78/PD-1, Top line [1]: 987 pg/mL
IL-2 release in HuT78/P3Z, IC50 [2]: 0.087 mg/L
IL-2 release in HuT78/P3Z, Max inhibition [2]: 92.4%
EC50 [3]: 0.117 mg/L
Top MFI [3]: 129 MFI
EC50 [4]: 0.317 mg/L
Assay-1 IL-2 release, EC50 (HuT78/PD-1 + HEK293/OS8/PD-L1) [5]: 0.112 mg/L
Assay-1 IL-2 release, Top line (HuT78/PD-1 + HEK293/OS8/PD-L1) [5]: 1140 pg/mL
Assay-2 IL-2 release, IC50 (HuT78/P3Z + HEK293/PD-L1) [6]: 0.1 mg/L
Assay-2 IL-2 release, Max inhibition (HuT78/P3Z + HEK293/PD-L1) [6]: 84.4%

B11: hu326-3G1 (antibody, V domains shown)
VH: B7 VH with S9P, E46K, G63D, N85S, F95Y, T109L
VL: B7 VL
notes: Humanized mAb
EC50 [10]: 0.088 mg/L
